Columns and labels:
[1] = molecular target: T1, C3b (proteolytic fragment of complement component C3) (human, UniProt P01024 749-1663; P01024 749-1663); assay: SPR
[2] = molecular target: native complement component C3 (human); assay: SPR
C3 methylamine = C3 methylamine (human, treated with methylamine); assay: SPR
[3] = molecular target: T1, C3b (proteolytic fragment of complement …); assay: BLI
iC3b [4] = molecular target: iC3b (human); assay: BLI
[5] = molecular target: T1, C3b (proteolytic fragment of complement …); assay: BLI; remark: listed apart in the source
iC3b [6] = molecular target: iC3b (human); assay: BLI; remark: listed apart in the source

T1 sequence (P01024 23-667, chain 1 of 2): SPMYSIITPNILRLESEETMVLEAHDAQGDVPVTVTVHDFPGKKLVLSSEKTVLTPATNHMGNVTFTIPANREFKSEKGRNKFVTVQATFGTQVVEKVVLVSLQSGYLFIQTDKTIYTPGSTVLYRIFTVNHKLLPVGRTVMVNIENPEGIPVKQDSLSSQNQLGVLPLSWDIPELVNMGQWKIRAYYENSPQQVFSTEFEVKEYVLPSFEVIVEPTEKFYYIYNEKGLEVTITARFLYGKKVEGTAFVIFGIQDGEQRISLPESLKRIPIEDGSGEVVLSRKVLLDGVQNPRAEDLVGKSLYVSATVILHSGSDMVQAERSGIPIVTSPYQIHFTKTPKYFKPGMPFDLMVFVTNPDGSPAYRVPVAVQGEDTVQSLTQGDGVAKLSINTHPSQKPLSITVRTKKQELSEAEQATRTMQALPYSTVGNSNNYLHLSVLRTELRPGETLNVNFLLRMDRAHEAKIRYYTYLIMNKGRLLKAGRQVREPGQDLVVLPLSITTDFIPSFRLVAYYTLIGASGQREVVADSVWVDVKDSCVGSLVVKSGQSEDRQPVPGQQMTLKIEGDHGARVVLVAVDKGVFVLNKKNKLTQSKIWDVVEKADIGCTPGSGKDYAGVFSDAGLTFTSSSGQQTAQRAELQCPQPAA
T1 sequence (P01024 749-1663, chain 2 of 2): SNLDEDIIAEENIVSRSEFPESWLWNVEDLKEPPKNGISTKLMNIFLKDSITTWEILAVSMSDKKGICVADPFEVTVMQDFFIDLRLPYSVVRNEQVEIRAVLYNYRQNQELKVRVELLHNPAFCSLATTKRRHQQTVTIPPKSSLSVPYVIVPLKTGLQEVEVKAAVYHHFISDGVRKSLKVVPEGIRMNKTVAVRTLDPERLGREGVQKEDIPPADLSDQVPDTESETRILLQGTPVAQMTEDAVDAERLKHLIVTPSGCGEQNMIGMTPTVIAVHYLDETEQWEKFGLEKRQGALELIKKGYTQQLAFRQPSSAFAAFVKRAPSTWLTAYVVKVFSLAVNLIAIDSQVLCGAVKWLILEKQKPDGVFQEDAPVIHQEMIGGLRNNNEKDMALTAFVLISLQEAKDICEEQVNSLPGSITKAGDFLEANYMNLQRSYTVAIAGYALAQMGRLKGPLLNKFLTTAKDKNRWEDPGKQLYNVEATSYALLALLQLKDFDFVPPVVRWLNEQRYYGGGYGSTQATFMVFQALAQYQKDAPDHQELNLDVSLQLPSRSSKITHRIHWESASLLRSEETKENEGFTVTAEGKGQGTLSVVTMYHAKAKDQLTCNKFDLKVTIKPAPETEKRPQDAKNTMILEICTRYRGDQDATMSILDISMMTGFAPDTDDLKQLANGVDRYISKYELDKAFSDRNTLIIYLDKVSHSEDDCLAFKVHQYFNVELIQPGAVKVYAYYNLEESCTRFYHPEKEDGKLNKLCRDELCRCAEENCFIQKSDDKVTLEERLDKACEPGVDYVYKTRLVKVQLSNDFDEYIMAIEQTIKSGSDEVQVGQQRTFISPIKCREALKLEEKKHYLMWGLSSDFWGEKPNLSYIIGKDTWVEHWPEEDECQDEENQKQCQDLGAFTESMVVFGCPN
Sequence of iC3b (human) (chain, as listed by the source, chain 1 of 3): as the sequence (P01024 23-667, chain 1 of 2) above
Sequence of iC3b (human) (chain, as listed by the source, chain 2 of 3): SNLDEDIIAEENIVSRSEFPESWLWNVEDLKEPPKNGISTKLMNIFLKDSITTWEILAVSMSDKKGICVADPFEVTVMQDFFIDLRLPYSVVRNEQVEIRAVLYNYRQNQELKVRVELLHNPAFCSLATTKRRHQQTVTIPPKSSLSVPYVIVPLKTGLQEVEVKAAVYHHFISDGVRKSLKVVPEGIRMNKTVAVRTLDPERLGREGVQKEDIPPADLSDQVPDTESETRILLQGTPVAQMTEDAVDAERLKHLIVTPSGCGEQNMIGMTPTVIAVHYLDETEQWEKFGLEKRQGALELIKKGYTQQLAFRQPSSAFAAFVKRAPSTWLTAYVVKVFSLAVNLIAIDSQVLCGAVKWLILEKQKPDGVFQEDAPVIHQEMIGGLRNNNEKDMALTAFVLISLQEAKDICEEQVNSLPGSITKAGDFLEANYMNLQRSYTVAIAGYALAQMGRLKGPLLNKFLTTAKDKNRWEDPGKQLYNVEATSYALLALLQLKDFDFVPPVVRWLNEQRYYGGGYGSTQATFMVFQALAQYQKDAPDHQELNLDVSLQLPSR
Sequence of iC3b (human) (chain, as listed by the source, chain 3 of 3): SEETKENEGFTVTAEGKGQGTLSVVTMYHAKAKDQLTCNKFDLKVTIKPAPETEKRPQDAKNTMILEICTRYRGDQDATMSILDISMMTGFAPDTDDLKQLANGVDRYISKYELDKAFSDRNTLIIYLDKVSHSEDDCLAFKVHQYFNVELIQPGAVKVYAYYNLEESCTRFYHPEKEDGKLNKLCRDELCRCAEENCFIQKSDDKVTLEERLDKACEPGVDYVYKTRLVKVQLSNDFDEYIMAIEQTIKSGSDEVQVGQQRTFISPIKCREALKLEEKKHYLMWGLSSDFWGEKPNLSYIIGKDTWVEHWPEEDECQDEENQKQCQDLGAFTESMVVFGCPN
Sequence of native complement component C3 (human) (chain, as listed by the source, chain 1 of 2): as the sequence (P01024 23-667, chain 1 of 2) above
Sequence of native complement component C3 (human) (chain, as listed by the source, chain 2 of 2): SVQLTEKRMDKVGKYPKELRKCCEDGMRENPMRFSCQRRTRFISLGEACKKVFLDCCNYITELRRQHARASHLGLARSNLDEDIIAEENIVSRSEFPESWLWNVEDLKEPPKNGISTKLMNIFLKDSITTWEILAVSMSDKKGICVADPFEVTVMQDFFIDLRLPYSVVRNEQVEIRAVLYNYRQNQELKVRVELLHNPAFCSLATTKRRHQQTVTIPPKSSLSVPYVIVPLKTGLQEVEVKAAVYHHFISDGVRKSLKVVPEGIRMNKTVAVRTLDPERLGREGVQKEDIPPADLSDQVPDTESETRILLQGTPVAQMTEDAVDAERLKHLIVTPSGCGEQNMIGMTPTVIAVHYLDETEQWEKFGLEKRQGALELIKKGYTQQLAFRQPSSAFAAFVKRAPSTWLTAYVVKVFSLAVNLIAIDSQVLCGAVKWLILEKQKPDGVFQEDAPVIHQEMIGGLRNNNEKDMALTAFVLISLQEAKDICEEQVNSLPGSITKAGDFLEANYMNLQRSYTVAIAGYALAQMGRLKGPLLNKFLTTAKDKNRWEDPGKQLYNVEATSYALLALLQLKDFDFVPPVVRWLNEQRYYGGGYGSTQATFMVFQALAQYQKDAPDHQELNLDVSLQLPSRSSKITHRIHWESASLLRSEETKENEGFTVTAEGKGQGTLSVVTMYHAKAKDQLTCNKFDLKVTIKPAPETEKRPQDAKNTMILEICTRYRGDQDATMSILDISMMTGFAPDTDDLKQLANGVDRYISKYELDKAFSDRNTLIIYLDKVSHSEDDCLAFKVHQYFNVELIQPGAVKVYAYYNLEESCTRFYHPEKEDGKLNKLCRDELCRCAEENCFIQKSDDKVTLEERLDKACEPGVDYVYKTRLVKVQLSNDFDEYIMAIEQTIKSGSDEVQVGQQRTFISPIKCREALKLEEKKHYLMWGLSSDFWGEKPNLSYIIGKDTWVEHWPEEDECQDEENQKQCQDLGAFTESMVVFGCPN
Sequence of C3 methylamine (human, treated with methylamine) (chain, as listed by the source, chain 1 of 2): as the sequence (P01024 23-667, chain 1 of 2) above
Sequence of C3 methylamine (human, treated with methylamine) (chain, as listed by the source, chain 2 of 2): as the sequence (chain, as listed by the source, chain 2 of 2) above

B1: avi-tagged, biotinylated EWE nanobody (VHH)
VHH: QVQLVETGGGLVQAGGSLRLSCAASGSIFSINAMGWFRQAPGKEREFVATINRSGGRTYYADSVKGRFTISRDNGKNMVYLQMHSLKPEDTAIYYCAAGTGWSPQTDNEYNYWGQGTQVTVSS
modifications: biotin
- koff [1]: 8.6e-05 s⁻¹
- koff [2]: 0.000105 s⁻¹
- koff (C3 methylamine): 7.6e-05 s⁻¹

B2: EWE-hC3Nb1 nanobody, bacterially expressed (VHH)
VHH: QVQLVETGGGLVQAGGSLRLSCAASGSIFSINAMGWFRQAPGKEREFVATINRSGGRTYYADSVKGRFTISRDNGKNMVYLQMHSLKPEDTAIYYCAAGTGWSPQTDNEYNYWGQGTQVTVSS
- koff [3]: 0.00037 s⁻¹
- koff (iC3b [4]): 0.00026 s⁻¹

B3: EWEnH fusion protein (EWE fused to FH CCP2-4) (other)
chain: EWEQVQLVETGGGLVQAGGSLRLSCAASGSIFSINAMGWFRQAPGKEREFVATINRSGGRTYYADSVKGRFTISRDNGKNMVYLQMHSLKPEDTAIYYCAAGTGWSPQTDNEYNYWGQGTQVTVSSRPCGHPGDTPFGTFTLTGGNVFEYGVKAVYTCNEGYQLLGEINYRECDTDGWTNDIPICEVVKCLPVTAPENGKIVSSAMEPDREYHFGQAVRFVCNSGYKIEGDEEMHCSDDGFWSKEKPKCVEISCKSPDVINGSPISQKIIYKENERFQYKCNMGYEYSERGDAVCTESGWRPLPSCEE
- Kd [5]: 7.1 nM
- Kd (iC3b [6]): 8.9 nM
